The values below come from publication PMC3832495, “Human Factor H-Related Protein 2 (CFHR2) Regulates Complement Activation” (PLoS ONE, 2013).

For data set [1], the target named is N-biotinylated C3b (UniProt P01024). Briefly: SPR; Biacore T200, 25°C; N-biotinylated C3b captured on a streptavidin-coated CM3 chip (520 RU); factor H or CFHR2 6.25–3200 nM in HBS-EP (10 mM HEPES pH 7.4, 150 mM NaCl, 50 µM EDTA, 0.005% P20), 30 µl/min; 1:1 model with mass transport term, KD from kinetic rate constants; one CFHR2 dimer regarded as one molecule. On the technique in general: In SPR one partner is held on a chip, and binding of the other changes the refractive index at the surface.

Data set [2] deals with CFHR2/1-2 (N-terminal SCRs 1-2 of CFHR2) (human). Briefly: SEC-MALS; static light scattering (miniDawn TREOS, Optilab T-rEX) with size exclusion chromatography on Superdex 200 or Superdex 75; proteins purified by Ni2+-chelate chromatography, deglycosylated, non-reduced. On the technique in general: SEC sorts molecules by how far they enter the pores of the column.
Data set [3] concerns the molecule itself. The data set is described as above.
For data set [4], the target named is T1, C3d (UniProt P01024 1002-1303).
T1 construct: C3d, cleavage fragment of complement C3; source: bought: Complement Technology
Briefly: ELISA; competition: C3b or C3dg (methods; C3d in results) 5 µg/ml immobilised; constant CFHR2 (5 µg/ml, 0.07 µM) and increasing factor H (5–50 µg/ml, 0.033–0.33 µM); factor H detected with factor H/1-4 antiserum, CFHR2 with mAb A72. The note with it: both partners purified.

Data set [5] has as its target T2, C3dg (UniProt P01024 955-1303).
T2 construct: C3dg, cleavage fragment of complement C3; cloned with the printed primer pair; source: E. coli, pET200/D-Topo expression system, purified (Ni-NTA Superflow Cartridge), dialyzed against DPBS
Description: ELISA; C3b, C3c, C3dg or C3d (each 142 nM) coated on MaxiSorp plates; CFHR2 or factor H (each 0.07 µM) or CFHR2 fragments in equimolar amounts; detected with CFHR1 and factor H antisera. The note with it: both partners purified.

T1 sequence (P01024 1002-1303): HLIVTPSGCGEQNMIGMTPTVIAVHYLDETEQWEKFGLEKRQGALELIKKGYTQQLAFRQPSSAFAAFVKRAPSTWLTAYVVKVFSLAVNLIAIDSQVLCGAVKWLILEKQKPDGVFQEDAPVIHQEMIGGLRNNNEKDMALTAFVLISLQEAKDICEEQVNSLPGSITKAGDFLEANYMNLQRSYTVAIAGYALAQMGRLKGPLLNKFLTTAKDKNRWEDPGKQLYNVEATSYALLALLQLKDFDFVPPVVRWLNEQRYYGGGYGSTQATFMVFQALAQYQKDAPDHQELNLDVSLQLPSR
T2 sequence (P01024 955-1303): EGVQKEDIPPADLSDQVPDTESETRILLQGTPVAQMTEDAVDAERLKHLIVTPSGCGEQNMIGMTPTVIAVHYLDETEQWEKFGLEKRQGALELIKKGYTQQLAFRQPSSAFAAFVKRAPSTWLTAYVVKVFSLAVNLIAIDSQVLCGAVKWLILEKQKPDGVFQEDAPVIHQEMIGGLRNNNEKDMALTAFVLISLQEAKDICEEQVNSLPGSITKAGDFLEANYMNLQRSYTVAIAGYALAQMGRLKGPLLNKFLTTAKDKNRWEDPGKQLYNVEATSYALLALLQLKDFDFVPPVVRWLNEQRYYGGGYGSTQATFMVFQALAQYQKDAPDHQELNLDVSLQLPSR

Turning to “Factor H (from UniProt P08603 19-1231) (natural protein)”, in data set [1], the Kd (usually the equilibrium constant for the complex coming apart) turned out to be 0.57 µM.

Take “CFHR2/1-2 (N-terminal SCRs 1-2 of CFHR2) (domain or fragment)”: the stoichiometry N (as a rule, a count of units in the complex or per binding partner) in data set [2] was found to be 2.

B1: Human factor H-related protein 2 (CFHR2), recombinant full length (natural protein, UniProt P36980 19-270, looked up)
chain: EAMFCDFPKINHGILYDEEKYKPFSQVPTGEVFYYSCEYNFVSPSKSFWTRITCAEEGWSPTPKCLRLCFFPFVENGHSESSGQTHLEGDTVQIICNTGYRLQNNENNISCVERGWSTPPKCRSTISAEKCGPPPPIDNGDITSFLLSVYAPGSSVEYQCQNLYQLEGNNQITCRNGQWSEPPKCLDPCVISQEIMEKYNIKLKWTNQQKLYSRTGDIVEFVCKSGYHPTKSHSFRAMCQNGKLVYPSCEEK
notes: Complement factor H-related protein 2 (CFHR2), human, four SCR domains; Secreted from Pichia; Several glycosylated forms; also called CFHR2 homodimer; CFHR2 dimer
As for B1, the “stoichiometry N” value in data set [3] amounted to 2. This molecule also displayed a dissociation constant (Kd) in data set [1] of 4.2 µM. Also, the binding result in data set [4] and in data set [5] was “binds” throughout.
